Assay results from US20210285013A1.

Biological target: human ApoB100 (human) (UniProt P04114)
Test: cell-based or functional assay

Sequence of UniProt P04114 (P04114 28-4563 limits assumed): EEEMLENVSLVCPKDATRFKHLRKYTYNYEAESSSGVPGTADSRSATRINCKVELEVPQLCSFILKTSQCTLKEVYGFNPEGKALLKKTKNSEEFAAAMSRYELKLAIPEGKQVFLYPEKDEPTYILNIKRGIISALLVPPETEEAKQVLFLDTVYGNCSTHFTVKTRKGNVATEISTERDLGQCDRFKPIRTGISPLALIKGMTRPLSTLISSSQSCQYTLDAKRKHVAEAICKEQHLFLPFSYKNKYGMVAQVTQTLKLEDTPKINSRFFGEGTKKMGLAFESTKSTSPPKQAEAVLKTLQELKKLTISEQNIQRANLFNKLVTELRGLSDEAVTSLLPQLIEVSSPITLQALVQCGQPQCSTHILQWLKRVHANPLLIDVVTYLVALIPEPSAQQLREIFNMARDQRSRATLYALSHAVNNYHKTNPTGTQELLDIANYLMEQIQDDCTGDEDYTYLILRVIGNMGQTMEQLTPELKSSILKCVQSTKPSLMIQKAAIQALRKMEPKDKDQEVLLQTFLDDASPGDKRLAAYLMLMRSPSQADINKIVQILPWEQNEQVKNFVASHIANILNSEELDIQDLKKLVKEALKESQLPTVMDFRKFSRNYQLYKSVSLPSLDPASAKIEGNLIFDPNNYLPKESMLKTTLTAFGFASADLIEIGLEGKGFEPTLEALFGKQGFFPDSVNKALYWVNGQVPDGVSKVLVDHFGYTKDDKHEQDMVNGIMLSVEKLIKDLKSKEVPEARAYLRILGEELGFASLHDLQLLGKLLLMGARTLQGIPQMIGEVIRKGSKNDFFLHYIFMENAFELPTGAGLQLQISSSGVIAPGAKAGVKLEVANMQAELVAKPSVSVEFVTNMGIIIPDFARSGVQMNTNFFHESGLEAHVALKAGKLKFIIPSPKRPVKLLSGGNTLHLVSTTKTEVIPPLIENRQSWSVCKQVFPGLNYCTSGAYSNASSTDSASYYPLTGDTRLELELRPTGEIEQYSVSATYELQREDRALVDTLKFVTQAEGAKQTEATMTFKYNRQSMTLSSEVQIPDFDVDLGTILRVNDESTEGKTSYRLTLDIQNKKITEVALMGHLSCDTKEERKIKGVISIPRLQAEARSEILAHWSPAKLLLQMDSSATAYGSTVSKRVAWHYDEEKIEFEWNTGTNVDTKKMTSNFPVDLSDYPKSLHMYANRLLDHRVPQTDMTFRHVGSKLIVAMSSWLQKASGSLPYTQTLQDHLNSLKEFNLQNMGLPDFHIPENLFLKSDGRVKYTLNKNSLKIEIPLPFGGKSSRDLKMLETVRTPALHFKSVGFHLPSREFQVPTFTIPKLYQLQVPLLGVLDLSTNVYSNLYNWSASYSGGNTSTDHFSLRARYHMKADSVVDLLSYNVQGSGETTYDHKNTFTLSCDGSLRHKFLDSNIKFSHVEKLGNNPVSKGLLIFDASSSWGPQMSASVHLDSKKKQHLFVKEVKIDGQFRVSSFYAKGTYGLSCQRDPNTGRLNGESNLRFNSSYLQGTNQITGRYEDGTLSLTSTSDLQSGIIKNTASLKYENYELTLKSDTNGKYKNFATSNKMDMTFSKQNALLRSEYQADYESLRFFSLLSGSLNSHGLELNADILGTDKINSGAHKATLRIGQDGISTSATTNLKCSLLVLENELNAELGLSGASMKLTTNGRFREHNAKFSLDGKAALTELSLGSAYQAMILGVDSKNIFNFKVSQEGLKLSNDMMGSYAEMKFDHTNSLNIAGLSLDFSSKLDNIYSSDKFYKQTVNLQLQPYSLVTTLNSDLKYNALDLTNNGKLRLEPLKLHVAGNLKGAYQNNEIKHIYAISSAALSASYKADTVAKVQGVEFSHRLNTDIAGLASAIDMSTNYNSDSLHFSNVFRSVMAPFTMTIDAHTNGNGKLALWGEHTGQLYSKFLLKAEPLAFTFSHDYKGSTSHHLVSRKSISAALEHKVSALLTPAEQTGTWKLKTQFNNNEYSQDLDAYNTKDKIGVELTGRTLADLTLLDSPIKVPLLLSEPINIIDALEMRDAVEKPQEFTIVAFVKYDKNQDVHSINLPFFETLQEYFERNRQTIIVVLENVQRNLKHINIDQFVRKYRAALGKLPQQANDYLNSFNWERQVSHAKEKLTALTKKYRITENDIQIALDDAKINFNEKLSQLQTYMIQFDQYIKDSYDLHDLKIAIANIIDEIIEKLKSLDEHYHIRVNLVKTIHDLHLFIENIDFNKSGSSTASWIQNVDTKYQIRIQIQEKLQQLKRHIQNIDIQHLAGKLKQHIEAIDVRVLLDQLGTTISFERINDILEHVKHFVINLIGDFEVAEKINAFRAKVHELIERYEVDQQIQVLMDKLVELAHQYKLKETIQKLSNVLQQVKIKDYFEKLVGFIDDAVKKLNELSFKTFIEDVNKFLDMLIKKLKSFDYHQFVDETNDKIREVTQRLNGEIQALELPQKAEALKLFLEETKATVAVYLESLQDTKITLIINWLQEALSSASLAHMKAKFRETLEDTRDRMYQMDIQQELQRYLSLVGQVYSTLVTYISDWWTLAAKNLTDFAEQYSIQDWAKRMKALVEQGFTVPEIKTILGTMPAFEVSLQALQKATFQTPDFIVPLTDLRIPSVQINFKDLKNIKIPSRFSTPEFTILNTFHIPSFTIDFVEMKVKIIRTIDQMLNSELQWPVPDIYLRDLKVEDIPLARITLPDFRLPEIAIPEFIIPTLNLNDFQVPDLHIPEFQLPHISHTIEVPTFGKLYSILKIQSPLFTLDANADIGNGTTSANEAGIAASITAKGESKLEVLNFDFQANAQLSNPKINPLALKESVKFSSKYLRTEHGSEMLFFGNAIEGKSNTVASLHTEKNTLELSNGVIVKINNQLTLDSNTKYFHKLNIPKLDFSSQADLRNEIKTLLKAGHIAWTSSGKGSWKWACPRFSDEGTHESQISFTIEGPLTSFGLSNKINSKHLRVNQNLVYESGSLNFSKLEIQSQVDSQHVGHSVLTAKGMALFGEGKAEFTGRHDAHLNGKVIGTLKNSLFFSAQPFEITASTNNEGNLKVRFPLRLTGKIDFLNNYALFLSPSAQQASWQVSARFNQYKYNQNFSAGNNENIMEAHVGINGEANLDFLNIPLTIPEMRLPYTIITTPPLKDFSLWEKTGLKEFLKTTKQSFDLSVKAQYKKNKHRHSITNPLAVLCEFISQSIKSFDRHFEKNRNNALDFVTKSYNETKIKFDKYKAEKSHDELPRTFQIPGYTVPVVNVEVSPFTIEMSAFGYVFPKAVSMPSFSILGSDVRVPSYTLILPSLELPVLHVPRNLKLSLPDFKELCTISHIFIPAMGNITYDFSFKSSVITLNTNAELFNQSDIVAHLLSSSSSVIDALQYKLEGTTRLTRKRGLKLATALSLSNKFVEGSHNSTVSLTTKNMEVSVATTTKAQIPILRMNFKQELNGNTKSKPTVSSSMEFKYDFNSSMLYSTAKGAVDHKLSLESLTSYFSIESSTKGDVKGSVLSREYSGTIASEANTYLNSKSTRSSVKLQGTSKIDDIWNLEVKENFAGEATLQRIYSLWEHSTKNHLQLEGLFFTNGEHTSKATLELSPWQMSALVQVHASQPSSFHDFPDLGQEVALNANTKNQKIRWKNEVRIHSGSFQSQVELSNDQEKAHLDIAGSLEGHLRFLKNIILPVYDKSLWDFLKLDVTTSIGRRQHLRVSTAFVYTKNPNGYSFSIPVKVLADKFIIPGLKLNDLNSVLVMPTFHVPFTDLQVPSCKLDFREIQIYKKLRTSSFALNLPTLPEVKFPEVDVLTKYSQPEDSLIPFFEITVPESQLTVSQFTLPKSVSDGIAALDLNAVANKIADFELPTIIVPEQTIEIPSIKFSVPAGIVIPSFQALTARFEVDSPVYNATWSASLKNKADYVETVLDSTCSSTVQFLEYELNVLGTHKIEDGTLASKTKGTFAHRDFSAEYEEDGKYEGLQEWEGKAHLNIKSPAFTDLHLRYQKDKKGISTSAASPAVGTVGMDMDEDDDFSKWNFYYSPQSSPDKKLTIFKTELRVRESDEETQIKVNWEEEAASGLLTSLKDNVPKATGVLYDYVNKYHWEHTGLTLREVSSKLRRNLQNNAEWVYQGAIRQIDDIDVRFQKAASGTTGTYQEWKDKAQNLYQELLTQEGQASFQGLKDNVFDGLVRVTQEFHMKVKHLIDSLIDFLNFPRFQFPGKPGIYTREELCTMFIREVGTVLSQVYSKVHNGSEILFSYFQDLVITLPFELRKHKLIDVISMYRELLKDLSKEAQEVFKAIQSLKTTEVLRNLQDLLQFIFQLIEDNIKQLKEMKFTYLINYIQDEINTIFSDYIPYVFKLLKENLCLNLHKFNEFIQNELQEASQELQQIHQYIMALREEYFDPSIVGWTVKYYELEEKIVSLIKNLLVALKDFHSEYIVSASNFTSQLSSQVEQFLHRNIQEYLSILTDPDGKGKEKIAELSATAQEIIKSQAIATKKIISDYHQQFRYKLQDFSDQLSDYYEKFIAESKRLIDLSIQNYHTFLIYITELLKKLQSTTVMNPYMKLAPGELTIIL

reduction of serum cholesterol in LAHB mice after AAV8.TBG.hLDLR: 30%
Substance: human low density lipoprotein receptor (hLDLR) (from UniProt P01130 22-860)
